From patent US6458539, “Photoselection of nucleic acid ligands” (Somalogic, Inc.)

Columns and labels:
[1] = target: PDGF (platelet derived growth factor) (UniProt P01127); conditions: 5-bromo-2'-deoxyuridine (BrdU) substituted for T; photocrosslinking rate, 308 nm
[2] = target: PDGF (platelet derived growth factor) (UniProt P01127); test: filter; conditions: 5-bromo-2'-deoxyuridine (BrdU) substituted for T
[3] = target: T1, bFGF(155) (basic fibroblast growth factor, FGF2) (Homo sapiens, UniProt P09038 SEQ:1-155); test: filter; 1xPBS, 2 mM MgCl2, 0.01% HSA, 1 mM DTT, 37 C; Table 7 gives a different KD of 5.3e-9 M; Table 2 prints CACCC where SEQ 70 has CAGCC; conditions: tags: expressed in E. coli; Bachem California lot SN 433; label: 5'-32P
Protocol: (§1) Nitrocellulose filter binding was used to assess ligand affinity for bFGF_{(155)}. This was accomplished by first preparing 2,000 cpm/30 μL of 5'-^32P-radiolabeled material (≈1–5 fmol) of each sequence by dilution with 1×crosslink binding buffer (XLBB) (1×PBS/2 mM MgCl_2/0.01% HSA/1.0 mM dithiothreitol (DTT)) to give 2×DNA. Each 2×oligonucleotide sample was mixed with 30 μL of each bFGF_{(155)} concentration to be evaluated in a 96 well tray. bFGF_{(155)} concentrations were prepared by serial dilution with 1×XLBB. After incubation at 37° C. for 15 minutes, a multi-pipeter was used to load 40 μL of each DNA/bFGF_{(155)} mixture onto a pre-washed Gibco nitrocellulose binding curve apparatus followed by washing with a dissociation wash buffer. Bound DNA was then measured by phosphorimage and a binding curve for the percent bound DNA vs. [bFGF] was calculated by Kaleidograph ver. 3.09 software (Synergy Software Co., Reading, Pa).

[4] = target: T1, bFGF(155) (basic fibroblast growth …); test: filter; 1xPBS, 2 mM MgCl2, 0.01% HSA, 1 mM DTT, 37 C; Table 7 gives a different KD of 1.3e-10 M; conditions: tags: expressed in E. coli; Bachem California lot SN 433; label: 5'-32P
Protocol: as §1

[5] = target: VEGF (vascular endothelial growth factor) (UniProt P15692-4 P15692-4:27-191); test: filter; 1xPBS, 2 mM MgCl2, 37 C; conditions: tags: R&D Systems; chain copies: 2; label: 5'-32P
Sequence of VEGF (vascular endothelial growth factor) (P15692 other isoform, or with tags, fused parts or gaps): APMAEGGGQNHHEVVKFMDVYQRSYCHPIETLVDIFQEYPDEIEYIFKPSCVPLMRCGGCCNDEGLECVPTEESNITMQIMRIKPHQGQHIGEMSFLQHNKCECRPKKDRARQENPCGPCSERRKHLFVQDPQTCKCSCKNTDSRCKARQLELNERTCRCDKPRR

Sequence of PDGF (platelet derived growth factor) (P01127 82-190): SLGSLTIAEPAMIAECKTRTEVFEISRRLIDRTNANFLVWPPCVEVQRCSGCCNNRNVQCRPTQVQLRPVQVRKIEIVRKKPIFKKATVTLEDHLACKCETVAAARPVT
T1 sequence (P09038 134-288): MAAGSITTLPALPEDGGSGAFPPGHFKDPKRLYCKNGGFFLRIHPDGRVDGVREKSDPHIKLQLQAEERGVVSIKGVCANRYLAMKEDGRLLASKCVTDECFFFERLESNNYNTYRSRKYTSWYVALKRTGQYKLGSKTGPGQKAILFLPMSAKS

## GGGAGGACGATGCGGGCGAAGGCACACCGAGTTCATAGTATCCCACAGACGACGAGCGGGA [06.15]
[1]
  activity: 65000 M⁻¹ s⁻¹
[2]; 1500-fold weaker than bFGF (Table 6), Table 3 states relative KD >1000
  Kd: 200 nM

## GGGAGGACGATGCGGTGACGTAAGAGTGTAATCGATGCAGCCTGGCAGACGACGAGCGGGA [06.50]
[1]
  activity: 61000 M⁻¹ s⁻¹
[2]; 53-fold weaker than bFGF
  Kd: 280 nM

B1: 06.50 (ssDNA)
DNA: GGGAGGACGATGCGGTGACGTAAGAGTGTAATCGATGCAGCCTGGCAGACGACGAGCGGGA
modifications: 5-bromo-2'-deoxyuridine (BrdU) substituted for T
[3]
  Kd: 0.56 nM

B2: 06.15 (ssDNA)
DNA: GGGAGGACGATGCGGGCGAAGGCACACCGAGTTCATAGTATCCCACAGACGACGAGCGGGA
modifications: 5-bromo-2'-deoxyuridine (BrdU) substituted for T
[4]
  Kd: 0.016 nM
[5]
  binding signal: > 1000 fold KD relative to bFGF
